Legend:
[1] = target: T1, recombinant murine chordin (murine, UniProt Q9Z0E2 27-948); assay: SPR; Sensiq Pioneer biosensor; chordin amine-coupled (NHS/EDC, 10 mM acetate pH 4.5) to a COOH1 SPR chip; TLL1 variant as free analyte at 10-400 nM, 10 ul/min for 11 min; HBS-TE (HEPES-buffered saline, 0.005% Tween 20), 25 °C; regeneration with 10 mM HCl; global fitting; Kd from koff/kon; details: both partners purified
T1 construct: Chordin, murine, recombinant (R&D Systems); The source and species of chordin are told for the cleavage assay; source: bought: R&D Systems
T1 sequence (looked up): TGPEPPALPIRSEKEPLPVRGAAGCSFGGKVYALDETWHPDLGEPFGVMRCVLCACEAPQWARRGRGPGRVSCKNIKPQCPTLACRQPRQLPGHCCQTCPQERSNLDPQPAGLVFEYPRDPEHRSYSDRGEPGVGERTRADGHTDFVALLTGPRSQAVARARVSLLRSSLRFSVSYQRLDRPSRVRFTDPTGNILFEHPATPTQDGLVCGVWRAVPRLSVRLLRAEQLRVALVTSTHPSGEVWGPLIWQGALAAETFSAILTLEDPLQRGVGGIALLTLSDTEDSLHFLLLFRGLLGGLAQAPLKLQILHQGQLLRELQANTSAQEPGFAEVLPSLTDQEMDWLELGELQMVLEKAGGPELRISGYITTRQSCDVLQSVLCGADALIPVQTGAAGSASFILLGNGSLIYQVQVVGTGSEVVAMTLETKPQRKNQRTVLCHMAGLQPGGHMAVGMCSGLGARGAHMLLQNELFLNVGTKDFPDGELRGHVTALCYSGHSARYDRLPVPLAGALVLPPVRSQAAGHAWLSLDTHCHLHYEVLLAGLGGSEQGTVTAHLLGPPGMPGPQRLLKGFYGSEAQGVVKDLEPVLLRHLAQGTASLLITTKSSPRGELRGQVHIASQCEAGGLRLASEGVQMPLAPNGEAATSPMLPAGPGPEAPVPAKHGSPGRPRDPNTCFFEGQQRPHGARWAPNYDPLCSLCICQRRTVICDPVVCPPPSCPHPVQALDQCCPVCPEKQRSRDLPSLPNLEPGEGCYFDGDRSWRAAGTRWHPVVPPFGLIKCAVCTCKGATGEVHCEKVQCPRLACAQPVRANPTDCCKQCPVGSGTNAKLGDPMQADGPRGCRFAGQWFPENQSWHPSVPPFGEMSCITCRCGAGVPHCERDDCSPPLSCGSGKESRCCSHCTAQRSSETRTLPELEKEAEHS

[2] = target: T1, recombinant murine chordin; assay: cell-based or functional assay

B1: recombinant wild-type mammalian tolloid-like 1 (TLL1) (enzyme, human, UniProt O43897-1 148-1013, looked up)
chain: AATSRTERIWPGGVIPYVIGGNFTGSQRAMFKQAMRHWEKHTCVTFIERSDEESYIVFTYRPCGCCSYVGRRGNGPQAISIGKNCDKFGIVVHELGHVIGFWHEHTRPDRDNHVTIIRENIQPGQEYNFLKMEPGEVNSLGERYDFDSIMHYARNTFSRGMFLDTILPSRDDNGIRPAIGQRTRLSKGDIAQARKLYRCPACGETLQESNGNLSSPGFPNGYPSYTHCIWRVSVTPGEKIVLNFTTMDLYKSSLCWYDYIEVRDGYWRKSPLLGRFCGDKLPEVLTSTDSRMWIEFRSSSNWVGKGFAAVYEAICGGEIRKNEGQIQSPNYPDDYRPMKECVWKITVSESYHVGLTFQSFEIERHDNCAYDYLEVRDGTSENSPLIGRFCGYDKPEDIRSTSNTLWMKFVSDGTVNKAGFAANFFKEEDECAKPDRGGCEQRCLNTLGSYQCACEPGYELGPDRRSCEAACGGLLTKLNGTITTPGWPKEYPPNKNCVWQVVAPTQYRISVKFEFFELEGNEVCKYDYVEIWSGLSSESKLHGKFCGAEVPEVITSQFNNMRIEFKSDNTVSKKGFKAHFFSDKDECSKDNGGCQHECVNTMGSYMCQCRNGFVLHDNKHDCKEAECEQKIHSPSGLITSPNWPDKYPSRKECTWEISATPGHRIKLAFSEFEIEQHQECAYDHLEVFDGETEKSPILGRLCGNKIPDPLVATGNKMFVRFVSDASVQRKGFQATHSTECGGRLKAESKPRDLYSHAQFGDNNYPGQVDCEWLLVSERGSRLELSFQTFEVEEEADCGYDYVELFDGLDSTAVGLGRFCGSGPPEEIYSIGDSVLIHFHTDDTINKKGFHIRYKSIRYPDTTHTKK
notes: Human tolloid-like 1 (TLL1), functional enzyme lacking the signal peptide and the latency pro-domain; encoded by nucleotides 1089-3686 of NM_012464.4 (mRNA variant 1 TLL1); Expressed behind the signal peptide of the procollagen I alpha 1 chain (nucleotides 5127-5192 of NM_007400.1 as printed) for secretion; also called WT; native TLL1; source: HT-1080 cells, stably transfected (pIRESneo3), …
- Ka [1]: 8.6e+06 M⁻¹
- Kd [1]: 0.117 µM
- koff [1]: 0.000305 s⁻¹
- kon [1]: 2600 M⁻¹ s⁻¹

B2: recombinant TLL1 mutated variant I629V (enzyme, human, UniProt O43897-1 148-1013, looked up)
chain: AATSRTERIWPGGVIPYVIGGNFTGSQRAMFKQAMRHWEKHTCVTFIERSDEESYIVFTYRPCGCCSYVGRRGNGPQAISIGKNCDKFGIVVHELGHVIGFWHEHTRPDRDNHVTIIRENIQPGQEYNFLKMEPGEVNSLGERYDFDSIMHYARNTFSRGMFLDTILPSRDDNGIRPAIGQRTRLSKGDIAQARKLYRCPACGETLQESNGNLSSPGFPNGYPSYTHCIWRVSVTPGEKIVLNFTTMDLYKSSLCWYDYIEVRDGYWRKSPLLGRFCGDKLPEVLTSTDSRMWIEFRSSSNWVGKGFAAVYEAICGGEIRKNEGQIQSPNYPDDYRPMKECVWKITVSESYHVGLTFQSFEIERHDNCAYDYLEVRDGTSENSPLIGRFCGYDKPEDIRSTSNTLWMKFVSDGTVNKAGFAANFFKEEDECAKPDRGGCEQRCLNTLGSYQCACEPGYELGPDRRSCEAACGGLLTKLNGTVTTPGWPKEYPPNKNCVWQVVAPTQYRISVKFEFFELEGNEVCKYDYVEIWSGLSSESKLHGKFCGAEVPEVITSQFNNMRIEFKSDNTVSKKGFKAHFFSDKDECSKDNGGCQHECVNTMGSYMCQCRNGFVLHDNKHDCKEAECEQKIHSPSGLITSPNWPDKYPSRKECTWEISATPGHRIKLAFSEFEIEQHQECAYDHLEVFDGETEKSPILGRLCGNKIPDPLVATGNKMFVRFVSDASVQRKGFQATHSTECGGRLKAESKPRDLYSHAQFGDNNYPGQVDCEWLLVSERGSRLELSFQTFEVEEEADCGYDYVELFDGLDSTAVGLGRFCGSGPPEEIYSIGDSVLIHFHTDDTINKKGFHIRYKSIRYPDTTHTKK
notes: Human tolloid-like 1 (TLL1), functional enzyme lacking the signal peptide and the latency pro-domain; encoded by nucleotides 1089-3686 of NM_012464.4 (mRNA variant 1 TLL1); mutation found in ASD6 patients, in the CUB3 domain; Same construct as m1 (procollagen I alpha 1 signal peptide for secretion, C-terminal 7xHis) with the point mutation; also called Ile629Val; mutation 3; source: HT-1080 …
- Ka [1]: 41000 M⁻¹
- Kd [1]: 25 µM
- koff [1]: 0.00091 s⁻¹
- kon [1]: 37 M⁻¹ s⁻¹
- cleavage of chordin (densitometry of the intact chordin band after SDS/PAGE), activity against wild-type TLL1 [2]: ~25 % lower than wild-type TLL1

B3: recombinant TLL1 mutated variant M182L (enzyme, human, UniProt O43897-1 148-1013, looked up)
chain: AATSRTERIWPGGVIPYVIGGNFTGSQRAMFKQALRHWEKHTCVTFIERSDEESYIVFTYRPCGCCSYVGRRGNGPQAISIGKNCDKFGIVVHELGHVIGFWHEHTRPDRDNHVTIIRENIQPGQEYNFLKMEPGEVNSLGERYDFDSIMHYARNTFSRGMFLDTILPSRDDNGIRPAIGQRTRLSKGDIAQARKLYRCPACGETLQESNGNLSSPGFPNGYPSYTHCIWRVSVTPGEKIVLNFTTMDLYKSSLCWYDYIEVRDGYWRKSPLLGRFCGDKLPEVLTSTDSRMWIEFRSSSNWVGKGFAAVYEAICGGEIRKNEGQIQSPNYPDDYRPMKECVWKITVSESYHVGLTFQSFEIERHDNCAYDYLEVRDGTSENSPLIGRFCGYDKPEDIRSTSNTLWMKFVSDGTVNKAGFAANFFKEEDECAKPDRGGCEQRCLNTLGSYQCACEPGYELGPDRRSCEAACGGLLTKLNGTITTPGWPKEYPPNKNCVWQVVAPTQYRISVKFEFFELEGNEVCKYDYVEIWSGLSSESKLHGKFCGAEVPEVITSQFNNMRIEFKSDNTVSKKGFKAHFFSDKDECSKDNGGCQHECVNTMGSYMCQCRNGFVLHDNKHDCKEAECEQKIHSPSGLITSPNWPDKYPSRKECTWEISATPGHRIKLAFSEFEIEQHQECAYDHLEVFDGETEKSPILGRLCGNKIPDPLVATGNKMFVRFVSDASVQRKGFQATHSTECGGRLKAESKPRDLYSHAQFGDNNYPGQVDCEWLLVSERGSRLELSFQTFEVEEEADCGYDYVELFDGLDSTAVGLGRFCGSGPPEEIYSIGDSVLIHFHTDDTINKKGFHIRYKSIRYPDTTHTKK
notes: Human tolloid-like 1 (TLL1), functional enzyme lacking the signal peptide and the latency pro-domain; encoded by nucleotides 1089-3686 of NM_012464.4 (mRNA variant 1 TLL1); mutation found in ASD6 patients, in the catalytic domain; Same construct as m1 (procollagen I alpha 1 signal peptide for secretion, C-terminal 7xHis) with the point mutation; also called Met182Leu; mutation 1; source: HT-1080 …
- Ka [1]: 24000 M⁻¹
- Kd [1]: 42 µM
- koff [1]: 0.0018 s⁻¹
- kon [1]: 43 M⁻¹ s⁻¹
- cleavage of chordin (densitometry of the intact chordin band after SDS/PAGE), activity against wild-type TLL1 [2]: 50 % lower than wild-type TLL1

B4: recombinant TLL1 mutated variant V238A (enzyme, human, UniProt O43897-1 148-1013, looked up)
chain: AATSRTERIWPGGVIPYVIGGNFTGSQRAMFKQAMRHWEKHTCVTFIERSDEESYIVFTYRPCGCCSYVGRRGNGPQAISIGKNCDKFGIAVHELGHVIGFWHEHTRPDRDNHVTIIRENIQPGQEYNFLKMEPGEVNSLGERYDFDSIMHYARNTFSRGMFLDTILPSRDDNGIRPAIGQRTRLSKGDIAQARKLYRCPACGETLQESNGNLSSPGFPNGYPSYTHCIWRVSVTPGEKIVLNFTTMDLYKSSLCWYDYIEVRDGYWRKSPLLGRFCGDKLPEVLTSTDSRMWIEFRSSSNWVGKGFAAVYEAICGGEIRKNEGQIQSPNYPDDYRPMKECVWKITVSESYHVGLTFQSFEIERHDNCAYDYLEVRDGTSENSPLIGRFCGYDKPEDIRSTSNTLWMKFVSDGTVNKAGFAANFFKEEDECAKPDRGGCEQRCLNTLGSYQCACEPGYELGPDRRSCEAACGGLLTKLNGTITTPGWPKEYPPNKNCVWQVVAPTQYRISVKFEFFELEGNEVCKYDYVEIWSGLSSESKLHGKFCGAEVPEVITSQFNNMRIEFKSDNTVSKKGFKAHFFSDKDECSKDNGGCQHECVNTMGSYMCQCRNGFVLHDNKHDCKEAECEQKIHSPSGLITSPNWPDKYPSRKECTWEISATPGHRIKLAFSEFEIEQHQECAYDHLEVFDGETEKSPILGRLCGNKIPDPLVATGNKMFVRFVSDASVQRKGFQATHSTECGGRLKAESKPRDLYSHAQFGDNNYPGQVDCEWLLVSERGSRLELSFQTFEVEEEADCGYDYVELFDGLDSTAVGLGRFCGSGPPEEIYSIGDSVLIHFHTDDTINKKGFHIRYKSIRYPDTTHTKK
notes: Human tolloid-like 1 (TLL1), functional enzyme lacking the signal peptide and the latency pro-domain; encoded by nucleotides 1089-3686 of NM_012464.4 (mRNA variant 1 TLL1); mutation found in ASD6 patients, in the catalytic domain; Same construct as m1 (procollagen I alpha 1 signal peptide for secretion, C-terminal 7xHis) with the point mutation; also called Val238Ala; mutation 2; source: HT-1080 …
- Ka [1]: 55000 M⁻¹
- Kd [1]: 18 µM
- koff [1]: 0.0006 s⁻¹
- kon [1]: 33 M⁻¹ s⁻¹
- cleavage of chordin (densitometry of the intact chordin band after SDS/PAGE), activity against wild-type TLL1 [2]: ~25 % lower than wild-type TLL1

From article PMC6328869, “Functional and structural studies of tolloid-like 1 mutants associated with atrial-septal defect 6” (Bioscience Reports, 2018)
